Measurements reported in paper doi:10.1101/2023.01.30.525655 (bioRxiv, 2023).

Experiments:
[1] = biological target: MIF-6xHis (human macrophage migration inhibitory factor, hexahistidine-tagged) (human, UniProt P14174 2-115); test: cell-based or functional assay
[2] = biological target: RED-NHS-MIF-6xHis (human MIF-6xHis labelled with the RED-NHS dye) (human, UniProt P14174 2-115, RED-NHS dye (chemically labeled)); test: MST
SEC = biological target: the molecule itself; test: SEC
crystal structure = biological target: the molecule itself; test: crystal structure

Chain of RED-NHS-MIF-6xHis (human MIF-6xHis labelled with the RED-NHS dye) (P14174 2-115): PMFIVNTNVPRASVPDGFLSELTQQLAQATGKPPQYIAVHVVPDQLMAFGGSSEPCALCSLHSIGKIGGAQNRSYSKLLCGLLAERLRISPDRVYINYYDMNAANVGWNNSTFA
Chain of MIF-6xHis (human macrophage migration inhibitory factor, hexahistidine-tagged) (P14174 2-115): as above

synergy in the CXCR4 yeast lacZ reporter, 10 µM MIF with 10 µM MDL2 [1]	Kd [2] [µM]	Binder	stoichiometry N (SEC)	stoichiometry N (crystal structure)
~3 fold over the MIF-MDL1 combination	< 5	MDL2-6xHis (Arabidopsis thaliana MIF/D-DT-like protein 2, hexahistidine-tagged) (natural protein) PCLNLSTNVNLDGVDTSSILSEASSTVAKIIGKPENYVMIVLKGSVPMSFGGTEDPAAYGELVSIGGLNADVNKKLSAAVSAILETKLSVPKSRFFLKFYDTKGSFFGWNGATL	3	–
–	< 5	MDL3-6xHis (Arabidopsis thaliana MIF/D-DT-like protein 3, hexahistidine-tagged) (natural protein, UniProt F4J4H3 1-112, looked up) MPCLYITTNVNFDGVNTDPFYSEVTKAVASIVGRPQNLVMVVLKGSVEIVFGGNKEAAAYAEIVSMGGITKQVKRELIATVGSILHTHFSIHPTRFIFKVFDINSLPLPSKL	–	3
